Measurements as given in patent US20170362327A1 (GLENMARK PHARMACEUTICALS S A, published 2017).

Legend:
[1] = molecular target: T1, monovalent human TrkA extracellular region (human, UniProt P04629 33-423); assay: SPR (BIAcore 2000), antibody captured via anti-mouse immunoglobulin, monovalent TrkA extracellular region as analyte
T1 construct: also called recombinant monovalent human TrkA extracellular domain
Procedure: (§1) SPR analysis was used to measure the association and dissociation rate constants for the binding kinetics of the different antibodies (mouse and humanized antibodies). The binding kinetics of the mouse antibody and humanized variants were measured on a BIACORE 2000 instrument (GE Healthcare Europe GmbH, Glattbrugg, Switzerland) at room temperature, and analyzed with the BiaEvaluation software (v4.1, GE Healthcare Europe GmbH, Glattbrugg, Switzerland).
(§2) Antibodies were immobilized via capture of their Fc portion to allow for correct orientation on the sensor chip surface. A monoclonal mouse anti-human IgG (Fc) antibody sensor chip was used to capture all humanized antibodies regardless of their isotypes (Human Antibody Capture Kit, catalogue number BR-1008-39, GE Healthcare Europe GmbH), and a polyclonal rabbit anti-mouse immunoglobulin sensor chip was used to capture the MNAC13 mouse antibody (Mouse Antibody Capture Kit, catalogue number BR-1008-38, GE Healthcare Europe GmbH).
(§3) Data (sensorgram: fc2-fc1) were fitted with a 1:1 Langmuir model with mass transfer in spite of having little mass transfer limitation in mass transfer tests. To account for the experimental variations in captured antibody at the beginning of each measurement, the Rmax value was set to local in all fits. Dissociation times were of at least 350 seconds. Measurements were performed in triplicate, and included zero-concentration samples for referencing. Both Chi2 and residual values were used to evaluate the quality of a fit between the experimental data and individual binding models.

[2] = molecular target: T1, monovalent human TrkA extracellular …; assay: SPR (BIAcore 2000), antibody captured via Fc, monovalent TrkA extracellular region as analyte
Procedure: as §1, §2, §3

[3] = molecular target: T1, monovalent human TrkA extracellular …; assay: as above; remark: listed apart in the source
Procedure: as §1, §2, §3

[4] = molecular target: T1, monovalent human TrkA extracellular …; assay: SPR, against BXhVH5VL1
Procedure: as §1, §2, §3

T1 sequence (P04629 33-423): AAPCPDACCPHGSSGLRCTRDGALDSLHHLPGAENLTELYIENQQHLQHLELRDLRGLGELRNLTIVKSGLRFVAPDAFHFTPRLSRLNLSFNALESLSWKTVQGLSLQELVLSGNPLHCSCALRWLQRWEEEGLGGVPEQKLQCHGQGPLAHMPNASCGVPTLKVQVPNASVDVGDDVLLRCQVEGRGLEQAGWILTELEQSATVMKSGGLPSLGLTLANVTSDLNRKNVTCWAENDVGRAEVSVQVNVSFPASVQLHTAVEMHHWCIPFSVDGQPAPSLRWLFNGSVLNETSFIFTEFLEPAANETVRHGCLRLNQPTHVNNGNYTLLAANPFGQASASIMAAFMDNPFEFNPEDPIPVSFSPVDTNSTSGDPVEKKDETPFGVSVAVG

Binder | Kd [2] [nM] | Kd [3] [nM] | koff [3] [s⁻¹] | kon [3] [M⁻¹ s⁻¹] | other results
MNAC13 mouse antibody (antibody, mouse IgG1, kappa, V domains shown, Mouse monoclonal anti-TrkA antibody; also called parental murine antibody) VH: EVKLVESGGGLVQPGGSLKLSCAASGFTFSTYTMSWARQTPEKRLEWVAYISKGGGSTYYPDTVKGRFTISRDNAKNTLYLQMSSLKSEDTALYYCARGAMYGNDFFYPMDYWGQGTSVTVSS VL: QIVLTQSPAIMSASLGEEITLTCSASSSVSYMHWYQQKSGTSPKLLIYTTSNLASGVPSRFSGSGSGTFYSLTISSVEAEDAADYYCHQWSSYPWTFGGGTKLEIKA |  |  |  |  | Kd [1]: 18 nM; koff [1]: 0.00109 s⁻¹; kon [1]: 60200 M⁻¹ s⁻¹
GBR VH5(V37A)VL1 IGHG4 S228P (antibody, human IgG4 S228P, kappa, IGHG4 isotype with S228P (EU) hinge substitution, kappa) heavy: not shown light: EIVLTQSPATLSLSPGERATLSCSASSSVSYMHWYQQKPGQAPRLLIYTTSNLASGIPARFSGSGSGTDFTLTISSLEPEDFAVYYCHQWSSYPWTFGQGTKLEIKRTVAAPSVFIFPPSDEQLKSGTASVVCLLNNFYPREAKVQWKVDNALQSGNSQESVTEQDSKDSTYSLSSTLTLSKADYEKHKVYACEVTHQGLSSPVTKSFNRGEC | 15 |  |  |  | 
GBR VH5(K3Q,V37A)VL1 IGHG4 S228P (antibody, human IgG4 S228P, kappa, IGHG4 isotype with S228P (EU) hinge substitution, kappa) heavy: not shown light: EIVLTQSPATLSLSPGERATLSCSASSSVSYMHWYQQKPGQAPRLLIYTTSNLASGIPARFSGSGSGTDFTLTISSLEPEDFAVYYCHQWSSYPWTFGQGTKLEIKRTVAAPSVFIFPPSDEQLKSGTASVVCLLNNFYPREAKVQWKVDNALQSGNSQESVTEQDSKDSTYSLSSTLTLSKADYEKHKVYACEVTHQGLSSPVTKSFNRGEC | 15 |  |  |  | 
BXhVH1VL1 (antibody, human IgG1, kappa, V domains shown, IGHG1, kappa) VH: EVQLLESGGGLVQPGGSLRLSCAASGFTFSTYTMSWVRQAPGKGLEWVSYISKGGGSTYYPDTVKGRFTISRDNSKNTLYLQMNSLRAEDTAVYYCAKGAMYGNDFFYPMDYWGQGTTVTVSS VL: EIVLTQSPATLSLSPGERATLSCSASSSVSYMHWYQQKPGQAPRLLIYTTSNLASGIPARFSGSGSGTDFTLTISSLEPEDFAVYYCHQWSSYPWTFGQGTKLEIKR |  | 426 | 0.0133 | 31300 | 
GBR VH1(V37A)VL1 (antibody, human IgG1, kappa, V domains shown, IGHG1, kappa) VH: EVQLLESGGGLVQPGGSLRLSCAASGFTFSTYTMSWARQAPGKGLEWVSYISKGGGSTYYPDTVKGRFTISRDNSKNTLYLQMNSLRAEDTAVYYCAKGAMYGNDFFYPMDYWGQGTTVTVSS VL: EIVLTQSPATLSLSPGERATLSCSASSSVSYMHWYQQKPGQAPRLLIYTTSNLASGIPARFSGSGSGTDFTLTISSLEPEDFAVYYCHQWSSYPWTFGQGTKLEIKR |  | 338 | 0.00663 | 19600 | 
GBR VH5(V37A)VL1 (antibody, human IgG1, kappa, IGHG1, kappa; also called GBR VH5(V37A)VL1 IGHG1 antibody; GBR VH5 (V37A)VL1 antibody) heavy: not shown light: EIVLTQSPATLSLSPGERATLSCSASSSVSYMHWYQQKPGQAPRLLIYTTSNLASGIPARFSGSGSGTDFTLTISSLEPEDFAVYYCHQWSSYPWTFGQGTKLEIKRTVAAPSVFIFPPSDEQLKSGTASVVCLLNNFYPREAKVQWKVDNALQSGNSQESVTEQDSKDSTYSLSSTLTLSKADYEKHKVYACEVTHQGLSSPVTKSFNRGEC | 16 | 16 | 0.00225 | 140000 | fold decrease of KD against BXhVH5VL1 [4]: 2.5 fold; fold increase in affinity against BXhVH5VL1 [4]: 2.5 fold
GBR VH5(K3Q,V37A)VL1 (antibody, human IgG1, kappa, IGHG1, kappa) heavy: not shown light: EIVLTQSPATLSLSPGERATLSCSASSSVSYMHWYQQKPGQAPRLLIYTTSNLASGIPARFSGSGSGTDFTLTISSLEPEDFAVYYCHQWSSYPWTFGQGTKLEIKRTVAAPSVFIFPPSDEQLKSGTASVVCLLNNFYPREAKVQWKVDNALQSGNSQESVTEQDSKDSTYSLSSTLTLSKADYEKHKVYACEVTHQGLSSPVTKSFNRGEC | 15.4 | 15.4 | 0.00262 | 170000 | fold decrease of KD against BXhVH5VL1 [4]: 2.7 fold
BXhVH5VL3 (antibody, human IgG1, kappa, V domains shown) VH: EVKLLESGGGLVQPGGSLRLSCAASGFTFSTYTMSWVRQTPGKRLEWVAYISKGGGSTYYPDTVKGRFTISRDNSKNTLYLQMNSLRAEDTAVYYCARGAMYGNDFFYPMDYWGQGTTVTVSS VL: QIVLTQSPATLSLSPGERATLSCSASSSVSYMHWYQQKPGQSPRLLIYTTSNLASGIPSRFSGSGSGTFYTLTISSLEPEDFAVYYCHQWSSYPWTFGGGTKLEIKR |  | 63 | 0.00395 | 62300 | 
GBR VH5(V37A)VL3 (antibody, human IgG1, kappa, V domains shown, IGHG1, kappa) VH: EVKLLESGGGLVQPGGSLRLSCAASGFTFSTYTMSWARQTPGKRLEWVAYISKGGGSTYYPDTVKGRFTISRDNSKNTLYLQMNSLRAEDTAVYYCARGAMYGNDFFYPMDYWGQGTTVTVSS VL: QIVLTQSPATLSLSPGERATLSCSASSSVSYMHWYQQKPGQSPRLLIYTTSNLASGIPSRFSGSGSGTFYTLTISSLEPEDFAVYYCHQWSSYPWTFGGGTKLEIKR |  | 28 | 0.00205 | 74500 | 
GBR VH5(K3Q, V37A, T40A, P60A, T62S)VL1 (antibody, human IgG1, kappa, V domains shown, IGHG1, kappa) VH: EVQLLESGGGLVQPGGSLRLSCAASGFTFSTYTMSWARQAPGKRLEWVAYISKGGGSTYYADSVKGRFTISRDNSKNTLYLQMNSLRAEDTAVYYCARGAMYGNDFFYPMDYWGQGTTVTVSS VL: EIVLTQSPATLSLSPGERATLSCSASSSVSYMHWYQQKPGQAPRLLIYTTSNLASGIPARFSGSGSGTDFTLTISSLEPEDFAVYYCHQWSSYPWTFGQGTKLEIKR | 48 |  |  |  | 
BXhVH3VL3 (antibody, human IgG1, kappa, V domains shown, IGHG1, kappa) VH: EVQLLESGGGLVQPGGSLRLSCAASGFTFSTYTMSWVRQTPGKRLEWVAYISKGGGSTYYPDTVKGRFTISRDNSKNTLYLQMNSLRAEDTAVYYCAKGAMYGNDFFYPMDYWGQGTTVTVSS VL: QIVLTQSPATLSLSPGERATLSCSASSSVSYMHWYQQKPGQSPRLLIYTTSNLASGIPSRFSGSGSGTFYTLTISSLEPEDFAVYYCHQWSSYPWTFGGGTKLEIKR |  | 134 | 0.00459 | 31400 | 
BXhVH3VL1 (antibody, human IgG1, kappa, IGHG1, kappa) heavy: not shown light: EIVLTQSPATLSLSPGERATLSCSASSSVSYMHWYQQKPGQAPRLLIYTTSNLASGIPARFSGSGSGTDFTLTISSLEPEDFAVYYCHQWSSYPWTFGQGTKLEIKRTVAAPSVFIFPPSDEQLKSGTASVVCLLNNFYPREAKVQWKVDNALQSGNSQESVTEQDSKDSTYSLSSTLTLSKADYEKHKVYACEVTHQGLSSPVTKSFNRGEC |  | 133 | 0.00619 | 46500 | 
GBR VH3(V37A)VL1 (antibody, human IgG1, kappa, V domains shown, IGHG1, kappa) VH: EVQLLESGGGLVQPGGSLRLSCAASGFTFSTYTMSWARQTPGKRLEWVAYISKGGGSTYYPDTVKGRFTISRDNSKNTLYLQMNSLRAEDTAVYYCAKGAMYGNDFFYPMDYWGQGTTVTVSS VL: EIVLTQSPATLSLSPGERATLSCSASSSVSYMHWYQQKPGQAPRLLIYTTSNLASGIPARFSGSGSGTDFTLTISSLEPEDFAVYYCHQWSSYPWTFGQGTKLEIKR |  | 123 | 0.00471 | 38200 | 
GBR VH3(V37A)VL3 (antibody, human IgG1, kappa, V domains shown, IGHG1, kappa) VH: EVQLLESGGGLVQPGGSLRLSCAASGFTFSTYTMSWARQTPGKRLEWVAYISKGGGSTYYPDTVKGRFTISRDNSKNTLYLQMNSLRAEDTAVYYCAKGAMYGNDFFYPMDYWGQGTTVTVSS VL: QIVLTQSPATLSLSPGERATLSCSASSSVSYMHWYQQKPGQSPRLLIYTTSNLASGIPSRFSGSGSGTFYTLTISSLEPEDFAVYYCHQWSSYPWTFGGGTKLEIKR |  | 95 | 0.00295 | 31000 | 
GBR VH5(K3Q, V37A, R44G)VL1 (antibody, human IgG1, kappa, V domains shown, IGHG1, kappa) VH: EVQLLESGGGLVQPGGSLRLSCAASGFTFSTYTMSWARQTPGKGLEWVAYISKGGGSTYYPDTVKGRFTISRDNSKNTLYLQMNSLRAEDTAVYYCARGAMYGNDFFYPMDYWGQGTTVTVSS VL: EIVLTQSPATLSLSPGERATLSCSASSSVSYMHWYQQKPGQAPRLLIYTTSNLASGIPARFSGSGSGTDFTLTISSLEPEDFAVYYCHQWSSYPWTFGQGTKLEIKR | 20 |  |  |  | 
GBR VH5(R94K)VL1 (antibody, human IgG1, kappa, IGHG1, kappa) heavy: not shown light: EIVLTQSPATLSLSPGERATLSCSASSSVSYMHWYQQKPGQAPRLLIYTTSNLASGIPARFSGSGSGTDFTLTISSLEPEDFAVYYCHQWSSYPWTFGQGTKLEIKRTVAAPSVFIFPPSDEQLKSGTASVVCLLNNFYPREAKVQWKVDNALQSGNSQESVTEQDSKDSTYSLSSTLTLSKADYEKHKVYACEVTHQGLSSPVTKSFNRGEC | 52 |  |  |  | 
